Experimental data reported in paper PMC5278397.

Target: gp130 extracellular domain (UniProt P40189)
Test: SPR; gp130 extracellular domain amine-coupled on CM5; fixed excess of IL-6 and differing concentrations of gp80 (0–250 nM) with or without VHH6; 100 μl/min; 1:1 binding model; 25 °C, HBS-P+; BIAcore T200

IL-6–gp80 complex (IL-6 with gp80V4), sequence (P05231 49-212): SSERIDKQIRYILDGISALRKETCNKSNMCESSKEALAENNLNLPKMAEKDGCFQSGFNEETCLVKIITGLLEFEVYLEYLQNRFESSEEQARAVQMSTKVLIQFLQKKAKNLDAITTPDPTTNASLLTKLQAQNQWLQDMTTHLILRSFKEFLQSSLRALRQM
IL-6–gp80 complex (IL-6 with gp80V4), sequence (P08887 111-322): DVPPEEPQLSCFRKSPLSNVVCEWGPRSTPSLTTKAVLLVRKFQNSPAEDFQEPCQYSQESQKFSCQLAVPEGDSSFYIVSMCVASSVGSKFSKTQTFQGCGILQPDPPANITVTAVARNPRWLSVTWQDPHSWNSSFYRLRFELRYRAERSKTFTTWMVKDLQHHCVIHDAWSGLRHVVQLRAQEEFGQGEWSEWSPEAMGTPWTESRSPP
gp130 extracellular domain, sequence (P40189 23-619): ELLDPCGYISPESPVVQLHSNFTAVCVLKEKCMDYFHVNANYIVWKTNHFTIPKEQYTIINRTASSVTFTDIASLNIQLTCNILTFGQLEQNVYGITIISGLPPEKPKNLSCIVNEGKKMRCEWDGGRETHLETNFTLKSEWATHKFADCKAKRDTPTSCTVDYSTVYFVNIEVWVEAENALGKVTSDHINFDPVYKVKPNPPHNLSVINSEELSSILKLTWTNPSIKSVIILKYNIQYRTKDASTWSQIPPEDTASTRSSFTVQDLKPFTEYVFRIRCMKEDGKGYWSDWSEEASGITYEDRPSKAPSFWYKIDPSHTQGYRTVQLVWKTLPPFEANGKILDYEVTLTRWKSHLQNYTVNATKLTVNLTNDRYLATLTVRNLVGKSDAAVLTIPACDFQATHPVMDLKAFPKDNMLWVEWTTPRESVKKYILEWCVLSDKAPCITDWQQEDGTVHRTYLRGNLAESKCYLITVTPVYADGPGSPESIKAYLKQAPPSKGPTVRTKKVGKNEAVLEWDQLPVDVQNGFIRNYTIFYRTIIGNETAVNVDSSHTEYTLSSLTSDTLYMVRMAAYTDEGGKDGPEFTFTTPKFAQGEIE

koff: 0.037 s⁻¹
kon: 360000 M⁻¹ s⁻¹
Substance: IL-6–gp80 complex (IL-6 with gp80V4) (from UniProt P05231 49-212; P08887 111-322)
